Results published in patent US20260007747A1 (VIVASOR, published 2026).

What follows are binders tested against PD-L1 expressed on tumor cells (A549 wild type, MDA-MB-231, SK-MEL-5) (human, UniProt Q9NZQ7 19-290) (assay: cell-based or functional assay).
Chain of PD-L1 expressed on tumor cells (A549 wild type, MDA-MB-231, SK-MEL-5) (Q9NZQ7 19-290): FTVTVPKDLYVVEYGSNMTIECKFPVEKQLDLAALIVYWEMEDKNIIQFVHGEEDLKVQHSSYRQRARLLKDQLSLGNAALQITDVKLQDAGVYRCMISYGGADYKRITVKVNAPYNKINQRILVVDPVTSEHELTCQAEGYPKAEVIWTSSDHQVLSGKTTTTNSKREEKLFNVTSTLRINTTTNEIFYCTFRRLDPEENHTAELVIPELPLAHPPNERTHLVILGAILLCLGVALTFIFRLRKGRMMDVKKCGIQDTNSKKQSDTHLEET

expansion of T cells on irradiated tumor cells, E:T 1:4 [fold] | Binder
> 100 | αPDL1-δ-TCRγδ receptor encoded by construct GD102 (other) chain 1: EVQLVESGAEVKKPGSSVKVSCKASGGTFSSYAISWVRQAPGQGLEWMGGIIPIFGTANYAQKFQGRVTITADESTSTAYMELSSLRSEDTAVYYCARAPYYYYYMDVWGQGTTVTVSSGGGGSGGGGSGGGGSQSALTQPASVSGSLGQSVTISCTGSSSDVGSYNLVSWYQQHPGKAPNLMIYDVSKRSGVSNRFSGSKSGNTASLTISGLQAEDEADYYCSSYTGISTVVFGGGTKLTVLEVKTDSTDHVKPKETENTKQPSKSCHKPKAIVHTEKVNMMSLTVLGLRMLFAKTVAVNFLLTAKLFFL chain 2: PIKTDVITMDPKDNCSKDANDTLLLQLTNTSAYYMYLLLLLKSVVYFAIITCCLLRRTAFCCNGEKS
> 100 | αPDL1-γ-TCRγδ receptor encoded by construct GD109 (other) chain 1: EVQLVESGAEVKKPGSSVKVSCKASGGTFSSYAISWVRQAPGQGLEWMGGIIPIFGTANYAQKFQGRVTITADESTSTAYMELSSLRSEDTAVYYCARAPYYYYYMDVWGQGTTVTVSSGGGGSGGGGSGGGGSQSALTQPASVSGSLGQSVTISCTGSSSDVGSYNLVSWYQQHPGKAPNLMIYDVSKRSGVSNRFSGSKSGNTASLTISGLQAEDEADYYCSSYTGISTVVFGGGTKLTVLPIKTDVITMDPKDNCSKDANDTLLLQLTNTSAYYMYLLLLLKSVVYFAIITCCLLRRTAFCCNGEKS chain 2: EVKTDSTDHVKPKETENTKQPSKSCHKPKAIVHTEKVNMMSLTVLGLRMLFAKTVAVNFLLTAKLFFL
> 100 | PD-L1 CAR-ζFL (other) EVQLVESGAEVKKPGSSVKVSCKASGGTFSSYAISWVRQAPGQGLEWMGGIIPIFGTANYAQKFQGRVTITADESTSTAYMELSSLRSEDTAVYYCARAPYYYYYMDVWGQGTTVTVSSGGGGSGGGGSGGGGSQSALTQPASVSGSLGQSVTISCTGSSSDVGSYNLVSWYQQHPGKAPNLMIYDVSKRSGVSNRFSGSKSGNTASLTISGLQAEDEADYYCSSYTGISTVVFGGGTKLTVLAKPTTTPAPRPPTPAPTIASQPLSLRPEACRPAAGGAVHTRGLDFAPRKIEVMYPPPYLDNEKSNGTIIHVKGKHLCPSPLFPGPSKPFWVLVVVGGVLACYSLLVTVAFIIFWVKRGRKKLLYIFKQPFMRPVQTTQEEDGCSCRFPEEEEGGCELRVKFSRSADAPAYQQGQNQLYNELNLGRREEYDVLDKRRGRDPEMGGKPRRKNPQEGLYNELQKDKMAEAYSEIGMKGERRRGKGHDGLYQGLSTATKDTYDALHMQALPPR
